Like-named read-outs stand apart in the source and are kept apart here.
T1: monkey MSLN full-length protein (NCBI: XP_028696439.1) expressed on HEK293T-monkey MSLN cells (monkey)
T1 construct: Whole encoded precursor
T1 chain: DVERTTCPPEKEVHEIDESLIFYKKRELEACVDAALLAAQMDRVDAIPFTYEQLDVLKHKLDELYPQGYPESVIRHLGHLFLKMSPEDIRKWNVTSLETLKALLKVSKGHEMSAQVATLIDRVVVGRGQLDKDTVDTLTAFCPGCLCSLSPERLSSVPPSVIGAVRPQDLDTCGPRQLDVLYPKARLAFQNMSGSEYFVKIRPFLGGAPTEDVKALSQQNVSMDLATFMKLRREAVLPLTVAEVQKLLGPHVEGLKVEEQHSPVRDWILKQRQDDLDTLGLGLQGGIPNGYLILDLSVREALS


Assays:
[1] = biological target: T2, human MSLN-R3 protein (Met487-Ser606 of NCBI AAH09272.1) expressed on HEK293T-hMSLN-R3 cells (human, UniProt Q13421 487-606); assay: FACS on HEK293T-hMSLN-R3 cells
T2 construct: also called Region3
Protocol: (§1) The desired cells were expanded to the logarithmic growth phase in a T-75 cell culture flask. […] After the cells from the previous step were subjected to cell counting, the cell pellet was resuspended to 2×10⁶ cells/mL in a blocking buffer of [PBS+2% (w/w) BSA] and added into a 96-well FACS reaction plate at 50 μL/well. A chimeric antibody (a sample to be tested) was added at 50 μL/well, and the plate was incubated on ice for 2 h. […] After the plate was centrifuged and washed 5 times with a PBST buffer, assay and analysis were performed by FACS (FACS CantoII, purchased from BD). Data analysis was performed by software (Flowjo) to obtain the mean fluorescence intensity (MFI) of the cells.

[2] = biological target: T3, human MSLN full-length protein (NCBI: AAH09272.1) expressed on HEK293T-hMSLN-B8 cells (human, UniProt Q13421 296-598); assay: FACS on HEK293T-hMSLN-B8 cells
T3 construct: Whole encoded precursor
Protocol: as §1

[3] = biological target: T4, human MSLN protein endogenously expressed on OVCAR3 tumor cells (human, UniProt Q13421 296-598); assay: FACS on OVCAR3 cells
T4 construct: whole, on cells; Endogenous target on OVCAR3 cells; kept apart from the recombinant full-length construct; also called mesothelin
Protocol: as §1

[4] = biological target: T1, monkey MSLN full-length protein (NCBI: …); assay: FACS on HEK293T-monkey MSLN cells
Protocol: as §1

[5] = biological target: T5, human MSLN-FL-his protein (human, UniProt Q13421 296-580); assay: competitive ELISA; row Tab108 (R3); further: test concentration or dose not given here
T5 construct: made in HEK293E cells, purified on nickel column; also called hMSLN-FL-his; human MSLN full-length protein; not shown: His tag

[6] = biological target: T5, human MSLN-FL-his protein; assay: competitive ELISA; row F2.16.10; further: test concentration or dose not given here
[7] = biological target: T5, human MSLN-FL-his protein; assay: competitive ELISA; row Tab107 (conformation); further: test concentration or dose not given here
[8] = biological target: T5, human MSLN-FL-his protein; assay: competitive ELISA; row F2.24.10; further: test concentration or dose not given here
[9] = biological target: T5, human MSLN-FL-his protein; assay: competitive ELISA; row F2.17.3
Protocol: In order to identify antigen-binding sites of antibodies, MSLN chimeric antibodies were grouped using competitive ELISA.
The chimeric antibodies were diluted to 2 μg/mL with PBS and allowed to coat 96-well high-adsorption ELISA plates at 50 μL/well. After the plates were coated at 4° C. overnight, 250 μL of a blocking buffer (PBS containing 2% (w/w) BSA) was added for two hours of blocking at room temperature. 40 μg/mL of the antibodies to be tested were added, and then the human MSLN-FL-His protein with an EC₈₀ concentration corresponding to each of the antibodies to be tested was added for incubation for 2 h. The plates were washed 5 times with PBS, an HRP-labeled anti-His secondary antibody (purchased from Genescript, Cat. No. A00612) was then added for incubation for 1 h, and the plates were washed 5 times again. A TMB substrate was added at 50 μL/well, and after 10 minutes of incubation at room temperature, a stop solution (1.0 M HCl) was added at 50 μL/well. OD₄₅₀ nm values were read using an ELISA plate reader (Insight, purchased from PerkinElmer), and the competition rate between the antibodies was calculated according to the OD₄₅₀ nm values using a formula.

[10] = biological target: T5, human MSLN-FL-his protein; assay: competitive ELISA; row F1.2.12; further: test concentration or dose not given here
[11] = biological target: T5, human MSLN-FL-his protein; assay: competitive ELISA; row F2.58.8; further: test concentration or dose not given here
[12] = biological target: T5, human MSLN-FL-his protein; assay: competitive ELISA; row F1.56.1; further: test concentration or dose not given here
[13] = biological target: T5, human MSLN-FL-his protein; assay: competitive ELISA; row F2.13.3; further: test concentration or dose not given here
[14] = biological target: T5, human MSLN-FL-his protein; assay: competitive ELISA; row F1.35.24; further: test concentration or dose not given here
[15] = biological target: T5, human MSLN-FL-his protein; assay: SPR (Biacore), antibody captured on Protein A chip;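 further: measured at 25 °C, analyte injected 240 s in five twofold dilutions from 200 nM, dissociation up to 600 s, double-referenced, fitted with Langmuir 1:1 model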
Protocol: The flow cell was set at 25° C. The sample block was set at 16° C. Both were pretreated with the running buffer. In each cycle, first, the antibody to be tested was captured using the Protein A chip, and then a single concentration of human MSLN-FL-his protein was injected. […] The association was determined by injecting different concentrations of human MSLN-FL-his in solution for 240 s on end, wherein the flow rate was 30 μL/min, and the protein was diluted in a 1:1 dilution ratio from 200 nM (see detailed results for actual concentrations tested) to obtain 5 concentrations in total. The dissociation phase was monitored for up to 600 s and triggered by switching from the sample solution to the running buffer. The surface was regenerated by washing with 10 mM glycine solution (pH 1.5) at a flow rate of 30 μL/min for 30 s. The difference in bulk refractive index was corrected by subtracting the responses obtained from the goat anti-human Fc surface. Blank injections were also subtracted (=double reference). To calculate the apparent KD and other kinetic parameters, the Langmuir 1:1 model was used.

[16] = biological target: T5, human MSLN-FL-his protein; assay: competitive ELISA; row Tab142 (R1); further: test concentration or dose not given here
[17] = biological target: T5, human MSLN-FL-his protein; assay: competitive ELISA; row F2.39.3; further: test concentration or dose not given here
[18] = biological target: T2, human MSLN-R3 protein (Met487-Ser606 of …); assay: FACS on HEK293T-hMSLN-R3 cells; remark: listed apart in the source
Protocol: as §1

[19] = biological target: T2, human MSLN-R3 protein (Met487-Ser606 of …); assay: FACS on HEK293T-hMSLN-R3 cells; remark: listed apart in the source
Protocol: as §1

T2 sequence (Q13421 495-614): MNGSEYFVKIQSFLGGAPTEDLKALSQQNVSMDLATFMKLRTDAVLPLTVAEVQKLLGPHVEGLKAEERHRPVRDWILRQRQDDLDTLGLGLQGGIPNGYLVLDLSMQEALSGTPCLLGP
T5 sequence (Q13421 other isoform, or with tags, fused parts or gaps): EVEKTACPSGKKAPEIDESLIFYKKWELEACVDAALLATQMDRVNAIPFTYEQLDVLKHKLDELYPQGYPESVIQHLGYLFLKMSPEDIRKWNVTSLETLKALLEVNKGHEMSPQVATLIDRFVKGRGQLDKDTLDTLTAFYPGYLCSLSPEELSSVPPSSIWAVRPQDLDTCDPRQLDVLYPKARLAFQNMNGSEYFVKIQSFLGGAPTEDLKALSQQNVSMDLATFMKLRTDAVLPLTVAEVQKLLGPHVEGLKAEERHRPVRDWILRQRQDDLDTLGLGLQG
T3 sequence (Q13421 other isoform, or with tags, fused parts or gaps limits assumed): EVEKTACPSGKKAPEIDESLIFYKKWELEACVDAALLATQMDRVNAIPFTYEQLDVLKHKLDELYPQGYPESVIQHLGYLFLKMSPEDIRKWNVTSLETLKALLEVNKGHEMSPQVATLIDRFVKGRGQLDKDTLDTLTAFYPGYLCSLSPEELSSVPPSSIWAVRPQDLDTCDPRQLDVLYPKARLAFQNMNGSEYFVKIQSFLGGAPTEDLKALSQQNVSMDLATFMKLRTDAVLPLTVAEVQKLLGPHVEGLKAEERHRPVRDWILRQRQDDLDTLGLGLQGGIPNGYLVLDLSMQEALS
T4 sequence (Q13421 other isoform, or with tags, fused parts or gaps): as the sequence (Q13421 other isoform, or with tags, fused parts or gaps limits assumed) above, with P14R counted along it

competition rate [5] [%]	competition rate [6] [%]	competition rate [7] [%]	competition rate [8] [%]	competition rate [9] [%]	competition rate [10] [%]	competition rate [11] [%]	competition rate [12] [%]	competition rate [13] [%]	competition rate [14] [%]	Kd [15] [nM]	koff [15] [s⁻¹]	kon [15] [M⁻¹ s⁻¹]	competition rate [16] [%]	competition rate [17] [%]	Binder	also measured
–	–	–	–	–	–	–	–	–	–	–	–	–	–	–	S009-F3.80.22 (antibody, human IgG1, kappa, V domains shown, human-murine chimeric antibody, human IgG1/kappa constant regions) VH: QVQLQQSGAELVRPGASVTLSCKASGYTFTDYEIHWVKQTPVHGLEWIGAFDPEIGGSAYNQKFKDRATLTADKSSSTAYMELHSLTAEDSAVYYCTDYYGSSSGYFDVWGTGTTVTVSS VL: DVVMTQTPLSLPVSLGDQASISCRSSQSLEHNNGNTYLHWFLHKPGQSPKLLIYKVSNRFSGVPDRFSGSGSGTDFTLKISRVEAEDLGVYFCSQSTHVPFTFGSGTKLEIKR	EC50 [1]: 0.99 nM; Maximum mean fluorescence intensity [1]: 4800; EC50 [2]: 36.4 nM; Maximum mean fluorescence intensity [2]: 24700; Maximum mean fluorescence intensity [3]: 263; Maximum mean fluorescence intensity [4]: 57; binding result [4]: no binding
62	31	36	13	59	-15	100	97	29	100	0.914	8.51e-05	93100	49	67	S009-F1.35.24 (antibody, human IgG1, kappa, V domains shown, human-murine chimeric antibody, human IgG1/kappa constant regions) VH: EVQLQQSEPELVKPGASVRISCKASGYSFTDYYMHWVKQSPENRLEWIGEINPSTGGTSYNPKFKDKATLTVDKSSSTAYMQLKSLTSEESAVYYCTRYHYYGSSSYVMDYWGQGTSVTVSS VL: QIVLTQSPAILSASPGERVTMTCSASSSVYHMHWFQQKSGTSPKRWVYDTSKLASGVPARFSGSGSGTSYSLTISSMEAEDAATYYCQHWRTNPLTFGAGTKLELKR	–
-36	-7	-35	-39	-6	75	107	104	-588	79	0.889	0.00071	799000	9	69	S009-F1.56.1 (antibody, human IgG1, kappa, V domains shown, human-murine chimeric antibody, human IgG1/kappa constant regions) VH: EVQLQQSGAEVVKPGASVKLSCTASGFNIRHTYMHWVKQRPEQGLEWIGRIDPANGNTEYDPKFQGKATITADTSSNTAYLQLSSLTSEDTAVYYCARDGWYIDVWGAGTTVTVSS VL: DIVMSQSPSSLAVSVGEKVTMSCKSSQSLLYSNNQKNYLAWYQQKPGQSPKLLIYWASTRESGVPDRFTGSGSGTDFTLTISSVKAEDLAVYYCQRYYSYPWTFGGGTKLEIKR	–
101	4	0	-13	107	-208	97	-87	-525	47	3.06	0.000122	40000	19	105	S009-F2.39.3 (antibody, human IgG1, kappa, V domains shown, human-murine chimeric antibody, human IgG1/kappa constant regions) VH: QVQLQQPGTELVKPGASVKLSCKASGYTFTNYWMHWVKQRPGQGLEWIGNINPSSGDSYYNERFMSKAKMTVDKSSSTAYMQLSSLTSEDSAVYYCARSGGLWLAFWGPGTLVTVSA VL: DIVMTQSPSSLAMSVGQKVTMSCKSSQTLLNSVSQNNYLAWYQQKPGQSPTLLVYFASTRESGVPDRFIGGGSGTDFTLTISSVQAEDLADYFCQQHYRTPYTFGGGTNLEIKR	–
–	–	–	–	–	–	–	–	–	–	–	–	–	–	–	Tab106 (YP218, hIgG1) (antibody, V domains shown, Control antibody; also called YP218 human IgG1 antibody) VH: QQQLEESGGGLVKPEGSLTLTCKASGFDLGFYFYACWVRQAPGKGLEWIACIYTAGSGSTYYASWAKGRFTISKASSTTVTLQMTSLAAADTATYFCARSTANTRSTYYLNLWGPGTLVTVSS VL: DVVMTQTPASVSEPVGGTVTIKCQASQRISSYLSWYQQKPGQRPKLLIFGASTLASGVPSRFKGSGSGTEYTLTISDLECADAATYYCQSYAYFDSNNWHAFGGGTEVVVRT	EC50 [18]: 0.28 nM; Maximum mean fluorescence intensity [18]: 25400; EC50 [19]: 0.65 nM; Maximum mean fluorescence intensity [19]: 7460
60	41	-6	6	84	-133	111	104	-396	96	0.524	0.000123	236000	46	91	S009-F2.58.8 (antibody, human IgG1, kappa, V domains shown, human-murine chimeric antibody, human IgG1/kappa constant regions) VH: QVQLLQSGAELAKPGASVKLSCKASGYTFTSYWVHWVKQRPGQGLEWIGYINPNSGYTKYNQKFKDKATLTADKSSSTAYMQLSSLTYEDSAVYYCADHYYGSSRDYFDYWGQGTTLTVSS VL: QIVLTQSPAIMSASPGEKVTMTCSASSSVSYMYWYQQRPGSSPRLLIYDTSNLASGVPVRFSGSGSGTSYSLTISRMEAEDAATYYCQQWNSYPYTFGGGTKLEIKR	–
-105	-41	-54	-65	-11	23	-86	-426	84	7	8.65	0.00189	219000	-33	13	S009-F2.13.3 (antibody, human IgG1, kappa, V domains shown, human-murine chimeric antibody, human IgG1/kappa constant regions) VH: QVQLQQSGAELMKPGASVKLSCKATGYTFTGYWIEWVKQRPGHGLEWIGEILPGSGSTNYNEKFKGKATFTADTSSNTAYMQLSSLTTEDSAIYYCARAGAWFAYWGQGTLVTVSA VL: QIVLTQSPAIMSASLGERVTMTCTASSSVSSSYLHWYQQKPGSSPKLWTYSTSNLASGVPARFSGSGSGTSYSLTISSMEAEDAATYYCHQYHRSPWTFGGGTKLEIKR	–
100	-8	-1	-13	102	-182	78	-56	-814	43	2.72	0.000174	64100	15	106	S009-F2.17.3 (antibody, human IgG1, kappa, V domains shown, human-murine chimeric antibody, human IgG1/kappa constant regions) VH: QVQLQQPGTELVTPGASVKLSCKASGYSFTSYWMHWVKQRPGQGLEWIGNINPSNGDTFYNEKFKNKATLTVDKSSSTAYMQLSSLTSEDSAVYYCARGWLRDYWGQGTTLTVSS VL: not shown	–

Reference: patent publication US20250250357A1 (NANJING ZAIMING PHARMACEUTICAL, published 2025)
